These results are taken from patent US20190262327A1, “COMBINATION OF A BACE INHIBITOR AND AN ANTIBODY OR ANTIGEN-BINDING FRAGMENT FOR THE TREATMENT OF A DISORDER ASSOCIATED WITH THE ACCUMULATION OF AMYLOID BETA” (ASTRAZENECA AB, priority 2016, published 2019).

For assay [1], the target named is T1, human Amyloid beta 1-42 peptide (Homo sapiens, UniProt P05067).
T1 construct: biotinylated human Amyloid beta 1-42 peptide (rpeptide, USA; cat: A1117); purchased rPeptide, USA A1117; host or cells: synthetic peptide
Nature of the assay: Surface Plasmon Resonance kinetic profiling of purified scFv (ProteOn). It is filed as binding. The settings on record: biotinylated human Amyloid beta 1-42 on streptavidin chip.

Assay [2] has as its target T1, human Amyloid beta 1-42 peptide. Description: Abet0144-GL HTRF epitope competition assay. It is filed as binding. Conditions: purified competitor scFv; inhibition of human Amyloid beta 1-42 : Abet0144-GL IgG1-TM complex. The protocol: Two thousand and twenty four scFv chosen at random from selection rounds 3 and 4 of the targeted mutagenesis approach described in section 1.2 were expressed in bacteria to produce unpurified periplasmic scFv. Those scFv capable of binding synthetic human amyloid beta 1-42 peptide via the same epitope as Abet0144-GL IgG1-TM were elucidated in a competition format assay, using the HTRF™ platform. Specifically, fluorescence resonance energy transfer (FRET) was measured between streptavidin cryptate (associated with biotinylated amyloid beta 1-42 peptide) and anti-human Fc XL665 (associated with Abet0144-GL IgG1-TM) in the presence of a single concentration of each unpurified periplasmic test scFv.
A ‘Total’ binding signal was determined by analysing the binding of Abet0144-GL IgG1-TM to synthetic human Amyloid beta 1-42 peptide in the absence of competitor peptide. The ‘Sample’ signals were derived from analysing the binding of Abet0144-GL IgG1-TM to synthetic human Amyloid beta 1-42 peptide in the presence of a test scFv sample. Finally, a ‘Cryptate Blank’ signal was determined by analysing the fluorescence mediated by the detection reagent cocktail alone.
Unpurified periplasmic scFv were supplied in sample buffer consisting of 50 mM MOPS, pH 7.4, 0.5 mM EDTA, and 0.5 M sucrose. […] Assay plates were sealed and then incubated for 3 hours at room temperature in the dark, prior to measuring time-resolved fluorescence at 620 and 665 nm emission wavelengths on a fluorescence plate reader.
Data were analysed by calculating % Delta F values for each sample. % Delta F was determined according to equation 1. […]
Data were again analysed by calculating the % Delta F and % Total binding values for each sample. In addition, a % Inhibition value for each concentration of purified scFv was also calculated as described in Equation 3: […]

T1 sequence (P05067 672-713): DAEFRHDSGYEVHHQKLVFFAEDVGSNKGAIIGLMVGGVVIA

B1: Abet0380: optimized anti-Aβ1-42 clone derived from Abet0144-GL, non-germlined (protein)
scFv (part 1 of 2): EVQLLESGGGLVQPGGSLRLSCAASMGNFNYQTMWWVRQAPGRGLEWVSVIGKTNENIAYADSVKGRFTISRDNSKNTLYLQMNSLRAEDTAVYYCAREWMDHSRPYYYYGMDVWGQGTLVTVSS
scFv (part 2 of 2): SYELTQPPSVSVSPGQTASITCSGHNLEDKFASWYQQKPGQSPVLVIYRDDKRPSGIPERFSASNSGHTATLTISGTQATDEADYYCSSQDTVTRVFGGGTKLTVL
modifications: left off: small tags and cut ends
notes: optimized anti-Aβ1-42 clone derived from Abet0144-GL, non-germlined
For B1, the “ka” value in assay [1] and in assay [1] (listed as Abet0380 scFv) was 193000 M⁻¹ s⁻¹ throughout. Moreover, the “kd” value in assay [1] and in assay [1] (listed as Abet0380 scFv) was 2.85e-05 s⁻¹ in each case. Further, in assay [2], the “potency over the parent Abet0144-GL scFv sequence (FIG. 1)” value is listed as “significant improvement in potency”.

B2: Abet0377: optimized anti-Aβ1-42 clone from quaternary library (protein)
scFv (part 1 of 2): EVQLLESGGGLVQPGGSLRLSCAASGFNFNEQTLWWVRQAPGKGLEWVSVIGVGTKNIAYADTVKGRFTISRDNSKNTLYLQMNSLRAEDTAVYYCAREWMDHSRPYYYYGMDVWGQGTLVTVSS
scFv (part 2 of 2): SYELTQPPSVSVSPGQTASITCSGHNTEHKWISWYQQKPGQSPVLVIYRDDKRPSGIPERFSATNSGHTATLTISGTQATDEADYYCSSQDTVTRVFGGGTKLTVL
modifications: left off: small tags and cut ends
notes: optimized anti-Aβ1-42 clone from quaternary library
Turning to B2, in assay [1], the “ka” value was 196000 M⁻¹ s⁻¹ and the “kd” value turned out to be 3.02e-05 s⁻¹. Further, in assay [2], the “potency over the parent Abet0144-GL scFv sequence (FIG. 1)” value is on record as “significant improvement in potency”.

B3: Abet0369: optimized anti-Aβ1-42 clone derived from Abet0144-GL (protein)
scFv (part 1 of 2): EVQLLESGGGLVQPGGSLRLSCAASSFQISKNTMWWVRRAPGKGLEWVSVIGKDETRFNYADSVKGRFTISRDNSKNTLYLQMNSLRAEDTAVYYCAREWMDHSRPYYYYGMDVWGQGTLVTVSS
scFv (part 2 of 2): SYGLTQPPSVSVSPGQTASITCSGRNIGDSWVAWYQQKPGQSPVLVIYRDDKRPSGIPERFSASNSGHTATLTISGTQATDEADYYCSSQDTVTRVFGGGTKLTVL
modifications: left off: small tags and cut ends
notes: optimized anti-Aβ1-42 clone derived from Abet0144-GL
Take B3: in assay [1], the “ka” value was determined as 327000 M⁻¹ s⁻¹ and the “kd” value was found to be 4.34e-05 s⁻¹. The “potency over the parent Abet0144-GL scFv sequence (FIG. 1)” value in assay [2] is on record as “significant improvement in potency”.
